Reference: a protein production outcome set (Wang et al. 2014)

Assay: label from the status in PepcDB records

With “MEPEEERIRYSQRLRGTMRRRYEDDGISDDEIEGKRTFDLEEKLHTNKYNANFVTFMEGKDFNVEYIQRGGLRDPLIFKNSDGLGIKMPDPDFTVNDVKMCVGSRRMVDVMDVNTQKGIEMTMAQWTRYYETPEEEREKLYNVISLEFSHTRLENMVQRPSTVDFIDWVDNMWPRHLKESQTESTNAILEMQYPKVQKYCLMSVRGCYTDFHVDFGGTSVWYHIHQGGKVFWLIPPTAHNLELYENWLLSGKQGDIFLGDRVSDCQRIELKQGYTFVIPSGWIHAVYTPTDTLVFGGNFLHSFNIPMQLKIYNIEDRTRVPNKFRYPFYYEMCWYVLERYVYCITNRSHLTKEFQKESLSMDLELNGLESGNGDEEAVDREPRRLSSRRSVLTSPVANGVNLDYDGLGKTCRSLPSLKKTLAGDSSSDCSRGSHNGQVWDPQCAPRKDRQVHLTHFELEGLRCLVDKLESLPLHKKCVPTGIEDEDALIADVKILLEELANSDPKLALTGVPIVQWPKRDKLKFPTRPKVRVPTIPITKPHTMKPAPRLTPVRPAAASPIVSGARRRRVRCRKCKACVQGECGVCHYCRDMKKFGGPGRMKQSCVLRQCLAPRLPHSVTCSLCGEVDQNEETQDFEKKLMECCICNEIVHPGCLQMDGEGLLNEELPNCWECPKCYQEDSSEKAQKRKMEESDEEAVQAKVLRPLRSCDEPLTPPPHSPTSMLQLIHDPVSPRGMVTRSSPGAGPSDHHSASRDERFKRRQLLRLQATERTMVREKENNPSGKKELSEVEKAKIRGSYLTVTLQRPTKELHGTSIVPKLQAITASSANLRHSPRVLVQHCPARTPQRGDEEGLGGEEEEEEEEEEEDDSAEEGGAARLNGRGSWAQDGDESWMQREVWMSVFRYLSRRELCECMRVCKTWYKWCCDKRLWTKIDLSRCKAIVPQALSGIIKRQPVSLDLSWTNISKKQLTWLVNRLPGLKDLLLAGCSWSAVSALSTSSCPLLRTLDLRWAVGIKDPQIRDLLTPPADKPGQDNRSKLRNMTDFRLAGLDITDATLRLIIRHMPLLSRLDLSHCSHLTDQSSNLLTAVGSSTRYSLTELNMAGCNKLTDQTLIYLRRIANVTLIDLRGCKQITRKACEHFISDLSINSLYCLSDEKLIQKIS” the protein production was “failed”.
With “MKKLLTKGQIAILVIFSVLIIDQVIKIWIKTHMYWHESIRITDWFYIYFTENNGMAFGMELFGKLFLTTFRIVAVGLIGWYLYKIVKRGLKTGYIICVSLILTGALGNIIDSVFYGVIFNESTHSQIASFMPDGGGYSTWFYGKVVDMFYFPIIDTNWPTWMPFVGGEHFIFFSPIFNFADAAISCGIIALLLFYSKYLNDSYHHSVTKK” the protein production was “failed”.
For “EPEKLGQALTEVYAKANSFTVSSVAAPSWLHRFIIGKKGQNLAKITQQMPKVHIEFTEGEDKITLEGPTEDVSVAQEQIEGMVKDLINR”, the protein production was “not failed”.
For “MPLRLPPMLPSVDTSEELDAMVRDEALLRPAAQDLCAHLGLTGARLVRFDDGSLPVYAVGGTLVLKLFPGFEAAEGVREARVLSHLWGQLPVPTPRLHAGEMYKNGWRYVLMSRLPGVSLSTAWSRIPAVEQDRIVDEAAETLAALHSVDWKPLADVVGPADWGTFLRRQRAGVLEHHRAAGLPKPWLDQIPGFLDAVRLPASGERVLLHTEFMREHLTVDPQDGWRLTGLFDFEPAMIGDPAYDFVSVGLFMSRGDPRLLRRFYQAYGRPPHDPYQLLAYTLLHVYSDLAWYLREMPAPPHPRLDALAETWFGTDG”, the protein production was “failed”.
With “MTKIACVIVTYNRKQLLEEALNSVLIQTESPEYVFVIDNASTDGTEKYINDKFNFDNRQWHYVRCSQNLGGSAGFAQGMRLALQTDCSWISISDDDAIFEPGYFAALRKGIKQYPEQSVFSGSVLLPDGKHDMMHREVITNSATLTVRCVTDETYKHDFSYDIFSFVGILLSRQVIEAIGLPEQDYFIRFDDFEYAVRALKFGRFMNLSALEHHHHHH” the protein production was “failed”.
In the case of “MIVIEKLTVDMARGVENNLEGLQIFVAVAEAGGFTAAAERLGMTKANVSLQVGRLEAQLGATLFTRTTRRVKLTEAGQALYLDAQPALAALRDALLQAGHGAAELSGTLRLTAPVSHMAESVAPAATQFIRRHPGLQLELHAIDRMVDLVAEGMDLAIRLGTLRDSSLRALKLGEFAQQLVASPAYLRERGMPAHPGELAGHDWVALTLLKTPLTWRFAGAGGAEETVRMRARIKVDSAASLRSLLLAGAGMSVLDSFSVQEDLRQGRLIHLLPQWTLPKGGVYAVFPPGRHAPAAARAFVEFYRVLLARPV”, the protein production is reported as “failed”.
In the case of “MFKRLKDSALLFWSLEILIVATLIWVCTNIGFLFQPIGTFLSVVFMPILISGFLFYMLNPLVKLLTKVHYKKFRISRTGAVAIVFVLLFGLLVWGAVSLLPRLVSQVTQLIYNLPSIATEMQKAATKLINNSSVLKRIDISSYTKQFNGEISKYSQNFLSSLSSSVVTVISTITSVTIMAITIPVVLFYMLKDSEKFIPAISRFLPKKQRPEVIGLLQKMGDTISSYISGQVIECLFVGTFTAIGYMLISQPYGLLLGVIAGLTNIIPYVGPYIGIAPSLIVAFTKSPMQVVYVIIVVVIVQQVDGNLIYPNIIGRTLKIHPLTIIILLLAAGNIAGILGMILAIPFYAVVRTVVIYLYNIVELRNEEHLRKQTTVYQPQPAKATKADLTTTTKSKK”, the protein production is reported as “failed”.
For “MDVAGDEAGGTAGARDRVADRAAGRAVALGAIALLVAGALEAWAVLGGLEPARFWDTPSYLHDAGHLARGELPPLGLRMPGYPAFVALVGGRGPDLGRVAGAQAALWVASVVLAYALVRRLTGSLAAALAAGLAALSFVDLLFMAVTIYSETLCLALVCGAALATVAAFGGRTRAAVAGAGLLWAAAALVRPIFLASAGVYLLAALLLAARRALARRDVALAWAAVAAVVLAMASLNLARAGRFEFSPGAGLSLLNHVGHPAVYRHLPPDQAPIREVYERLAAEQGREWIGWWRAVGPLAQVVAPELAEAAGRLEVTAAEPVAERVALRALAAVPGGWLRVWADAAEQLLGRFALQLGWSARPDGPPQWPPGAWQHRAARDAEAAWRVGMPWLSAAALLLPPLALWLRARRRRRGDDVPGPAGAGAALATLWAIAGVNAGLSPALEPWAGQMRYRFPIQHLLLGLAIGAAVLAARALRPARGLAGAGSPAPGAGAARRT”, the protein production was “failed”.
For “MTEPTHKKQFSLRTAVMLPFIAVLLVTLSIVFYTQNNSYEKLVGDVSEKVLASYTQNTHADLNIFLNAPNFAVKSMVNQIQRYQMYHPNDTKQLQQFLKDSLEGIYTGLEQMDVLSFGGEKKEYIGFRREPNASLSLMLQDKRTNDDLIIYRGSEMSDNIRTVIANYDPRSRPWYKPAATTFKPSWSKIYTNADEKKEITISTMHPVFYDEDFIGVFAADVKLDSFNKFLSQETKHTKGVIYLIDDQQRLIAHSSVGSVLSIGTQNSPVGSRLFAVESCDETIQQSATYIKNNQLINNKNNDAEVFSFYYKGERYFSQITPYIDGNNLNWYIVISISESDLLGHLQEEQRRGLFFGIVLAAIGLIVGVYLVTQVTKPIFTTANAARNIASGNWNNNVEAQGSIYETTLLMNAFNDMTNKLQSSFDAMRQQITFDSLTQVLSRQGLIEQCRIMLDKKEHYEQGLLVIGINNFRDINDSFGILEGDQLLKNISDRLQCSFAHDNIAIARVGGDEFALFFSKLDDVEQLKQYARDMEGCFMTPFRVASNNSLLSISTGLVYGDLSCDSMTLWLRNASIALGQAKKNNLNMSLYTPEMAEASLHKANMTAELSLAIKNKELVPFYQPIIDIKSGKTIGAEALIRWLSPQRGMVSPLDFIPLAEENGMIIPMGSQVLTQACLDTVERIDQGLWPADFHMHVNLSVCQLTQNNFLDELKAVLHNTSMAPENLTLEITESRLVNHDNSTINTMQKIRDLGVQIAIDDFGTGYSSLAYIHKLPFDVLKVDRSFIKDLTAENIDSSIAAAVCNMTQGFDITLVAEGIETQEQAKLLASLNYHHAQGFLYSRPIPLEDWPTE”, the protein production was “failed”.
